# Results published in US20230071765A1, “COMPOSITIONS HAVING THIOREDOXIN ACTIVITY AND RELATED METHODS” (ORPRO THERAPEUTICS, INC., priority 2020, published 2023).
# What was measured:
# [1] = tested on: rats; conditions: rat, in vivo; cited from earlier work
# [2] = lyophilized from 9% sucrose, 1.7 mM EDTA, pH 5.2; 40° C. for six months; cited from earlier work
# [3] = tested on: IL-6 and TNF-alpha in HBE-ALI from healthy and CF donors; assay: inflammatory cytokine release in HBE-ALI cultures (ELISA); assay type: cell-based, human; conditions: for effect on the inflammatory effect of saline: CF HBE-ALI
# Method: Nasal airway epithelial cells from normal healthy volunteers or CF subjects were cultured in serum-free media at an air-liquid interface with mucociliary differentiation, based on methods adapted from the approach of Schlegel and colleagues (Suprynowicz, F. A., et al., Proc Natl Acad Sci USA, 2012, 109(49): p. 20035-40; Becker, M. N., et al., Am J Respir Crit Care Med, 2004, 169(5): p. 645-53). A number of unique CF and healthy control specimens were collected, expanded, and cryopreserved using this technique. 30 wells were cultured to differentiation at ALI for over 30 days from each of three unique normal or CF donors (homozygous for F508del). Triplicate cultures were exposed at the apical surface to PBS, native Trx, or ORP-100 and both apical and basolateral media samples were collected at 4 and 24 hours after challenge. Apical collection occurred by placing 200 uL of sterile PBS on the apical surface and recovering this after 15 min incubation. ELISA for IL-6 was performed for each sample in duplicate and others were measured using a multiplexed assay. Media was centrifuged to remove debris and stored at −80 C until ELISA analysis.
# FIG. 8: Levels of IL-6 or TNFα induced after 24 hr in the basolateral ALI media of primary HBE cultures from nasal epithelia of non-CF (left series of bars) and CF donors (right series of bars). Delivery: apical-surface bolus application for 15 min of 200 uL volumes of control or test article solutions. PBS: 0.9% phosphate-buffered saline negative vehicle control (black bars); ORP100-1000: 1 mM ORP-100 in PBS (solid dark bars); […] uM ORP-100 in PBS (solid light bars); Trx-1000: 1 mM native thioredoxin-1 in PBS (dark hatched bars); Trx-100: 100 uM native thioredoxin-1 in PBS (light hatched bars). All concentrations reflect volumes delivered to the HBE apical surface.
# [4] = tested on: Sprague-Dawley rats; assay: nebulized aerosol inhalation in rats, inflammatory potential and toxicity; assay type: in vivo, rat; conditions: for neutrophil influx (sucrose/EDTA formulation effect): nebulized aerosol; for adverse test article effects (clinical observations, BALF chemistry, cell count, differential, lung cytokines, macroscopic and microscopic findings): target delivered doses 10 mg/kg and 40 mg/kg, aerosol, 1, 4 or 20 hours post exposure
# Method: This example evaluated and compared the in vivo inflammatory potential among three forms of C35S monothiol Trx (oxidized ORP-100, reduced ORP-100, and reduced ORP100S) formulated in the sucrose/EDTA formulation composition described in PCT WO 2006/090127 and delivered to normal rats as nebulized aerosols at doses of […] and 40 mg/kg.
# All three forms of ORP-100 were lyophilized following reduction with DTT and formulated in sucrose buffer (9% sucrose 1.17 mM EDTA pH 5.2). All test articles were evaluated at low (10 mg/kg) and high (40 mg/kg) target delivered doses. The test articles were administered to Charles River Sprague-Dawley rats via inhalation as an aerosol. The aerosol of each of the test articles was produced by a commercially available vibrating mesh nebulizer whose output was attached to a nose-only exposure system.
# Target doses were achieved via modulation of the aerosol exposure time while maintaining the aerosol concentration constant. Animals in Low Dose groups received a single dose of test article during a 20 minute exposure to achieve a target delivered dose of 10 mg/kg and deposited dose of 1 mg/kg. Animals in High Dose groups received a single dose of test article during a 75 minute exposure to achieve a target delivered dose of 40 mg/kg and target deposited dose of 4 mg/kg.
# Animals in each study group were evaluated for potential toxicity by measuring various parameters including: clinical signs, body weight, clinical pathology (BALF cell counts, LDH and albumin measurements), lung tissue cytokines, lung weights, gross pathology, and microscopic pathology of respiratory target tissues. Additionally, three animals in each Low Dose group had lung tissues collected for immunohistochemistry (Alizèe Pathology, Thurmont, M D). Three (3) animals in each Low Dose group were to be euthanized at 1 hour and 4 hours post exposure for blood and tissue collections. Four (4) animals in each High Dose group were euthanized at 4 and 20 hours post exposure for blood and tissue collections.
# [5] = thiol pKa (acid-dissociation constant); assay type: physicochemical; conditions: verified experimentally, data not shown
# From the text: The human CF airway surface liquid is approximately 0.8 pH units more acidic than that of unaffected individuals due to the loss of bicarbonate-mediated buffering of proton secretion (Garland A L, Walton W G, Coakley R D, et al., 2013, Molecular basis for pH-dependent mucosal dehydration in cystic fibrosis airways. PNAS 110:15973-8; Shah V S, Meyerholz D K, Tang X X, et al., 2016, Airway acidification initiates host defense abnormalities in cystic fibrosis mice, Science 351:503-7). This has consequences for the clinical use of reducing agents to treat condensed, abnormal mucus. […] Cys thiol pKa values range from pH 8.5 (cysteamine) to pH 9.5 (NAC). In marked contrast to these classical thiols, the structurally-stabilized pKa of the Trx active site Cys32 is two to three logs lower (pH 6.1-6.3), allowing high activity even at acidic CF airway pH (FIG. 2).
# [6] = stability analysis, lyophilized vs solution (DTNB and SEC-HPLC); assay type: physicochemical; conditions: lyophilized form, six months at 40° C.
# Method: Prior work, e.g. WO 2006/090127, teaches compositions for maintenance of thioredoxin in the reduced state. Significant experimentation was required to derive compositions able to keep thioredoxin reduced during storage, and these compositions were complex and required saccharide derivatives and EDTA as excipients. […] ORP-100 and ORP100S proteins were reduced with 100 mM DTT and exchanged over a NAP-5 column into volatile 20 mM ammonium acetate buffer at pH 5.5 to remove residual reductant. Half of the material was frozen at −80° C. then lyophilized while the remainder was kept in solution at either 5° C. or 40° C. for various time points (“PH5.5”). Lyophilized protein was reconstituted back into 20 mM ammonium acetate pH 5.5 immediately prior to evaluation at each time point (“Lyophilized”). Stability was assessed by measuring both free SH groups (DTNB chromogenic assay) and the percent monomers (SEC-HPLC).
# For FIG. 3: PH5.5: ORP-100 or ORP100S protein maintained in liquid formulation of 20 mM ammonium acetate, pH 5.5 for 0, 3, 7, 14, 21, 28, 90, or 180 days. Lyophilized: ORP-100 or ORP100S protein stored in the lyophilized form at 5° C. or 40° C. for the 0, 3, 7, 14, 21, 28, 90, or 180 days and assayed following reconstitution in 20 mM ammonium acetate, pH 5.5. Percent free sulfhydryl (reduction state) at 5° C. Second panel: Percent monomer determined by SEC assay at 5° C. Third panel: Percent free sulfhydryl at 40° C. Fourth panel: Percent monomer determined by SEC assay at 40° C.
molecule,measurement,setting,value
"thioredoxin: native human thioredoxin-1, 12 kDa redox protein with Cys-Gly-Pro-Cys active site (protein) VKQIESKTAFQEALDAAGDKLVVVDFSATWCGPCKMIKPFFHSLSEKYSNVIFLEVDVDDCQDVASECEVKCMPTFQFFKKGQKVGEFSGANKEKLEATINELV",neutrophil influx and inflammatory cytokine release,[1],high levels of neutrophil influx and inflammatory cytokine release
same,retention of starting activity,[2],almost complete retention of starting activity
"oxidized ORP-100: oxidized form of ORP-100, control lacking thioredoxin activity (protein, UniProt P10599 2-105, looked up, variant C35S, oxidized) Thioredoxin: VKQIESKTAFQEALDAAGDKLVVVDFSATWCGPSKMIKPFFHSLSEKYSNVIFLEVDVDDCQDVASECEVKCMPTFQFFKKGQKVGEFSGANKEKLEATINELV",effect on the inflammatory effect of saline,[3],not
same,neutrophil influx (sucrose/EDTA formulation effect),[4],induced
same,"adverse test article effects (clinical observations, BALF chemistry, cell count, differential, lung cytokines, macroscopic and microscopic findings)",[4],no evidence of adverse test article effects
"oxidized thioredoxin: oxidized thioredoxin inactive protein control of Rancourt et al. 2007 (protein, UniProt P10599 2-105, looked up, oxidized) Thioredoxin: VKQIESKTAFQEALDAAGDKLVVVDFSATWCGPCKMIKPFFHSLSEKYSNVIFLEVDVDDCQDVASECEVKCMPTFQFFKKGQKVGEFSGANKEKLEATINELV",BALF cell count and cytokine results,[1],identical BALF cell count and cytokine results as normal saline alone
"ORP-100: thioredoxin protein having a monothiol active site in which the cysteine at position 35 has been replaced with serine (protein, UniProt P10599 2-105, looked up, variant C35S) Thioredoxin: VKQIESKTAFQEALDAAGDKLVVVDFSATWCGPSKMIKPFFHSLSEKYSNVIFLEVDVDDCQDVASECEVKCMPTFQFFKKGQKVGEFSGANKEKLEATINELV",pKa compared to native Trx,[5],same pKa as native Trx
same,"storage stability (free SH, percent monomer)",[6],excellent storage stability
same,effect on the inflammatory effect of saline,[3],abrogated the inflammatory effect of saline
same,anti-inflammatory effect vs. PBS vehicle alone,"[3]; concentrations above 100 uM, in normal (isotonic) PBS",significant anti-inflammatory effect
same,induction of IL-6 and TNF-alpha,"[3]; reduced form, in PBS, apical application",non-inflammatory
same,"differences in BALF LDH, albumin, cell counts, differential counts and lung tissue cytokines vs. oxidized ORP-100 control groups",[4]; low and high dose aerosol,unremarkable
same,neutrophil influx (sucrose/EDTA formulation effect),[4],partially able to mitigate the formulation effect
same,"adverse test article effects (clinical observations, BALF chemistry, cell count, differential, lung cytokines, macroscopic and microscopic findings)",[4],no evidence of adverse test article effects
